Some targets named below: HLA-B*44:03; HLA-A*02:01; HLA-B*57:01; HLA-B*35:01; HLA-B*07:02; HLA-B*53:01.
Common to all, as to assay: IEDB peptide-MHC binding, purified MHC/competitive/radioactivity; ≥ and ≤ were set here for values at or beyond the usual limits of such assays
Settings in all cases: source organism: Bordetella pertussis

What is called IC50 is the concentration that gives 50% inhibition.

On to AEKVTTPAV, for which the IC50 with HLA-B*44:03 turned out to be 39.3 µM.
For AELQTYLRQ, the IC50 with HLA-B*44:03 was found to be 1.83 µM.
In the case of ALILAASPV, in the assay with HLA-A*02:01, the IC50 was found to be 26.3 µM.
For AMQGAVVHL, the IC50 with HLA-B*44:03 was found to be 37.1 µM; in the assay with HLA-A*02:01, 2.65 µM.
Turning to AMTHLSPAL, the IC50 in the assay with HLA-A*02:01 is 0.162 µM.
As to ATYIADSGF, the IC50 with HLA-B*57:01 was 4.17 µM.
With AVAAPAVGA, in the assay with HLA-A*02:01, the IC50 is at least 78.1 µM.
Consider KTNMVVTSV, for which the IC50 in the assay with HLA-B*57:01 was found to be 4.37 µM.
As for LAAQVTQRG, in the assay with HLA-B*57:01, the IC50 was found to be 40.2 µM.
For the sequence LEAGRRFTH, the IC50 with HLA-B*44:03 was 44.2 µM.
Consider LMGPLQVNA, for which the IC50 with HLA-A*02:01 was found to be 0.629 µM.
Regarding LPEPVKLTL, the IC50 with HLA-B*35:01 worked out at 69.9 µM.
Regarding LPKPVTVKL, the IC50 with HLA-B*07:02 was 2.66 µM.
For SLADISLGA, the IC50 in the assay with HLA-A*02:01 is 0.0911 µM.
YIWGLYPTY: in the assay with HLA-B*53:01, the IC50 was 48.1 µM.

(Values after the Immune Epitope Database (IEDB).)
